The record followed here is paper PMC2931317.

The data set concerns the target T1, DIP1-c (Disconnected Interacting Protein 1, longest isoform) (Drosophila melanogaster, UniProt C6TP62 1-410).
T1 sequence: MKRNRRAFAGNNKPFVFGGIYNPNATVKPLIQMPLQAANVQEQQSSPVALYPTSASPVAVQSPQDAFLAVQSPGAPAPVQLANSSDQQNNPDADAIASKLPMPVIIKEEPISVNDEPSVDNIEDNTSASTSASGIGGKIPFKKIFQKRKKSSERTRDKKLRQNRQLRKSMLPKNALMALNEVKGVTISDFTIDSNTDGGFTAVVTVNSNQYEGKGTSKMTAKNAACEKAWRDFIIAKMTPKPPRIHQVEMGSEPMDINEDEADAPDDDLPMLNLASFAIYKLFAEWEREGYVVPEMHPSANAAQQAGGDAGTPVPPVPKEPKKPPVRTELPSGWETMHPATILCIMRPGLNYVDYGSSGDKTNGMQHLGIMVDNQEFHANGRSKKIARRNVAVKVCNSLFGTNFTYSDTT
Nature of the data set: EMSA.

B1: dsDNA40 (dsDNA)
DNA 1: CCGGGCTGCACATGGTTAATGGCCAGTCCACGCGTAGATC
DNA 2: GATCTACGCGTGGACTGGCCATTAACCATGTGCAGCCCGG
B1 gave a Kd of 26 ± 8 nM.
